Assay results published in paper PMC8065039.

Tests used:
[1] = target: FcγRIIB/C (human) (UniProt P31994); experiment: SPR
[2] = target: FcγRIIA R167 (human) (UniProt P12318); experiment: SPR
[3] = target: Gama Fc Receptor 1 (CD64) (human) (UniProt P12314); experiment: SPR
[4] = target: C1q (human) (UniProt P02745); experiment: ELISA; C1q binding ELISA: plates coated with 5 ug/mL CA521 subtypes or OPDIVO (IgG4), fourfold serial dilutions starting at 40 ug/mL, 2 h at 37 C, C1q detected by HRP anti-human C1q; x axis of the figure: antibody concentration (nM); duplicate
C1q (human), sequence (P02745 23-245, chain 1 of 3): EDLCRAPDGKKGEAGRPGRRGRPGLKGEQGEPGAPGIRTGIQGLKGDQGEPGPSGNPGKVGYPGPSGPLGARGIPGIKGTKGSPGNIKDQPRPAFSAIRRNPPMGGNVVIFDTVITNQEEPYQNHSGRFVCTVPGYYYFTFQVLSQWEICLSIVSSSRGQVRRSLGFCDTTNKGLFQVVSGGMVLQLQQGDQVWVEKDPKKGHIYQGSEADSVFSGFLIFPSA
C1q (human), sequence (P02746 28-253, chain 2 of 3, further chain): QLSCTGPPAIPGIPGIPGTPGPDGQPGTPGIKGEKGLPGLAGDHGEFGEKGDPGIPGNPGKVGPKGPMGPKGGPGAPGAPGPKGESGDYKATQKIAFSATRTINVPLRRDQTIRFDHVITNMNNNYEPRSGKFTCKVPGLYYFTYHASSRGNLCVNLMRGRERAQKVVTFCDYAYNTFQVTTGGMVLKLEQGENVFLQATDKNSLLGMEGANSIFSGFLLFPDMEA
C1q (human), sequence (P02747 29-245, chain 3 of 3, further chain): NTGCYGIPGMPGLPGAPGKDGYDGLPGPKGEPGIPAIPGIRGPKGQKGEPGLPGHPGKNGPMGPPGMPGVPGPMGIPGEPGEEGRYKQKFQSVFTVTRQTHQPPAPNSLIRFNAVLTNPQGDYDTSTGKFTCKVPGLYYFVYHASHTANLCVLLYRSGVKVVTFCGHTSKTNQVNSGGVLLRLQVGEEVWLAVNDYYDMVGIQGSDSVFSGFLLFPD

FcγRIIA R167 (human), sequence (P12318 34-217 H167R): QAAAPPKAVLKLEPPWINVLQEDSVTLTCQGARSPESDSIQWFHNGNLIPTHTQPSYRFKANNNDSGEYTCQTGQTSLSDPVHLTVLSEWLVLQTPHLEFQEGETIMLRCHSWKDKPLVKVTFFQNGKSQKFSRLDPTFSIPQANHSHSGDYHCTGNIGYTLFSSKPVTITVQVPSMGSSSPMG
Gama Fc Receptor 1 (CD64) (human), sequence (P12314 16-374): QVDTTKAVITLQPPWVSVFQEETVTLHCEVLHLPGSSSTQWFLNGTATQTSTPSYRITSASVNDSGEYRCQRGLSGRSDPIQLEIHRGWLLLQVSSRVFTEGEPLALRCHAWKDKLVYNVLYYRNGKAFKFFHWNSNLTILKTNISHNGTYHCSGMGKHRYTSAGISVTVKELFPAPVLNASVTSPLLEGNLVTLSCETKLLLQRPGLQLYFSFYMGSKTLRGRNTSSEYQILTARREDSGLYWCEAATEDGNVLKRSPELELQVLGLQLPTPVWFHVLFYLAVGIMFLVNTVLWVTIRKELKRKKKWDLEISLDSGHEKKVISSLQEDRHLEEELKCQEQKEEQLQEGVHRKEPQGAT
FcγRIIB/C (human), sequence (P31994 43-217): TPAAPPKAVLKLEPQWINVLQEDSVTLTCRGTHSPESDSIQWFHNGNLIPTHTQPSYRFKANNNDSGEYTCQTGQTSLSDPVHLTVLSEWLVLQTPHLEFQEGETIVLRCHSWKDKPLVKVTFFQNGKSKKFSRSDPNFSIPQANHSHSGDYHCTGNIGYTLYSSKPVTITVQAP

| IC50 [4] [µM] | Substance | Kd [1] [µM] | Kd [2] [µM] | Kd [3] [µM] |
| --- | --- | --- | --- | --- |
|  | CA521(IgG1) (from UniProt P01857) | 20.4 | 5.11 | 0.00312 |
| 0.0359 | Opdivo (IgG4) (antibody) |  |  |  |
